In publication PMC5800818 (2018):

What was measured:
[1] = target: T1, rhodamine-labeled Mdm2^216–302 (human, UniProt Q00987-11 216-302, rhodamine label (site not stated)); experiment: FP
[2] = target: T1, rhodamine-labeled Mdm2^216–302; experiment: FP; remark: listed apart in the source
[3] = target: T1, rhodamine-labeled Mdm2^216–302; experiment: FP; remark: listed apart in the source
[4] = target: T1, rhodamine-labeled Mdm2^216–302; experiment: FP; GPpY peptide preassembled with PTBi

T1 sequence (Q00987 210-296): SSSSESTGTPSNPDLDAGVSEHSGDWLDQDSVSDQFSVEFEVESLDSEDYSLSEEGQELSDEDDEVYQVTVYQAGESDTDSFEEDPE

B1: Numb isoform-1 full-length, purified (natural protein)
chain: MNKLRQSFRRKKDVYVPEASRPHQWQTDEEGVRTGKCSFPVKYLGHVEVDESRGMHICEDAVKRLKAERKFFKGFFGKTGKKAVKAVLWVSADGLRVVDEKTKDLIVDQTIEKVSFCAPDRNFDRAFSYICRDGTTRRWICHCFMAVKDTGERLSHAVGCAFAACLERKQKREKECGVTATFDASRTTFTREGSFRVTTATEQAEREEIMKQMQDAKKAETDKIVVGSSVAPGNTAPSPSSPTSPTSDATTSLEMNNPHAIPRRHAPIEQLARQGSFRGFPALSQKMSPFKRQLSLRINELPSTMQRKTDFPIKNAVPEVEGEAESISSLCSQITNAFSTPEDPFSSAPMTKPVTVVAPQSPTFQANGTDSAFHVLAKPAHTALAPVAMPVRETNPWAHAPDAANKEIAATCSGTEWGQSSGAASPGLFQAGHRRTPSEADRWLEEVSKSVRAQQPQASAAPLQPVLQPPPPTAISQPASPFQGNAFLTSQPVPVGVVPALQPAFVPAQSYPVANGMPYPAPNVPVVGITPSQMVANVFGTAGHPQAAHPHQSPSLVRQQTFPHYEASSATTSPFFKPPAQHLNGSAAFNGVDDGRLASADRHTEVPTGTCPVDPFEAQWAALENKSKQRTNPSPTNPFSSDLQKTFEIEL
Question: With B1 as the binder, how does the Kd [1] read?
Answer: The Kd was 5.6 µM.

Question: Which Kd [2] does the source give for KRLKAERKFFKGFFGKTGKK (other) [thioredoxin-scaffolded Numb^63–82, His fusion] here?
Answer: The Kd was 86 µM.

B2: PTBi F75-76A (protein)
chain: SRPHQWQTDEEGVRTGKCSFPVKYLGHVEVDESRGMHICEDAVKRLKAERKFFKGAAGKTGKKAVKAVLWVSADGLRVVDEKTKDLIVDQTIEKVSFCAPDRNFDRAFSYICRDGTTRRWICHCFMAVKDTGERLSHAVGCAFAACLERKQKREKE
Question: For B2, which Kd [3] is on record?
Answer: The Kd was 43.5 µM.

B3: PTBi F71-72A (protein)
chain: SRPHQWQTDEEGVRTGKCSFPVKYLGHVEVDESRGMHICEDAVKRLKAERKAAKGFFGKTGKKAVKAVLWVSADGLRVVDEKTKDLIVDQTIEKVSFCAPDRNFDRAFSYICRDGTTRRWICHCFMAVKDTGERLSHAVGCAFAACLERKQKREKE
Question: For B3, which Kd [3] is on record?
Answer: Its Kd is 29 µM.

B4: PTBi in complex with GPpY (complex)
chain 1: SRPHQWQTDEEGVRTGKCSFPVKYLGHVEVDESRGMHICEDAVKRLKAERKFFKGFFGKTGKKAVKAVLWVSADGLRVVDEKTKDLIVDQTIEKVSFCAPDRNFDRAFSYICRDGTTRRWICHCFMAVKDTGERLSHAVGCAFAACLERKQKREKE
chain 2: AYIGPYL
modifications: phosphotyrosine at position 6 (AYIGPpYL)
Question: Which Kd [4] does the source give for B4 here?
Answer: Its Kd is 5.8 µM.

B5: Numb-PTBi (Numb^20–175), purified (domain or fragment)
chain: SRPHQWQTDEEGVRTGKCSFPVKYLGHVEVDESRGMHICEDAVKRLKAERKFFKGFFGKTGKKAVKAVLWVSADGLRVVDEKTKDLIVDQTIEKVSFCAPDRNFDRAFSYICRDGTTRRWICHCFMAVKDTGERLSHAVGCAFAACLERKQKREKE
Question: Which results are given for B5?
Answer: Kd [2]: 6.1 µM; Kd [1]: 5.5 µM

B6: PTBi F71-72-75-76A (protein)
chain: SRPHQWQTDEEGVRTGKCSFPVKYLGHVEVDESRGMHICEDAVKRLKAERKAAKGAAGKTGKKAVKAVLWVSADGLRVVDEKTKDLIVDQTIEKVSFCAPDRNFDRAFSYICRDGTTRRWICHCFMAVKDTGERLSHAVGCAFAACLERKQKREKE
Question: With B6 as the binder, how does the Kd [3] read?
Answer: Its Kd is 60.6 µM.

Question: How did the Kd [2] turn out when GMHICEDAVKRLKAERKFFKGFFGKTGKKAVKAVLWVS (other) [thioredoxin-scaffolded Numb^54–91, His fusion] was run?
Answer: Its Kd is 5.1 µM.

B7: Numb-PTBo, purified (domain or fragment)
chain: SRPHQWQTDEEGVRTGKCSFPVKYLGHVEVDESRGMHICEDAVKRLKATGKKAVKAVLWVSADGLRVVDEKTKDLIVDQTIEKVSFCAPDRNFDRAFSYICRDGTTRRWICHCFMAVKDTGERLSHAVGCAFAACLERKQKREKE
Question: How did the Kd [1] turn out when B7 was run?
Answer: Its Kd is 155 µM.
